# Measured values published in US20110293610A1 (published 2011).
# T1: TNF-beta (human, UniProt P01374 35-205)
# T1 construct: also called TNFβ; Tumour Necrosis Factor-beta
# T1 sequence (looked up): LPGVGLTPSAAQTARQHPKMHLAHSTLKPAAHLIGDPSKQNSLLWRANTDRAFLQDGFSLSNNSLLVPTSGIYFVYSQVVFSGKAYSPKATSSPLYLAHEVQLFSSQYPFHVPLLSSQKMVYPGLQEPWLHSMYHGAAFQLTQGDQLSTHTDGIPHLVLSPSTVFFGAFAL
# Key:
# [1] = target: T2, B Lymphocyte Stimulator, soluble form (human) (human, UniProt Q9Y275 134-285, biotinylated with NHS-biotin where used as biotinylated B Lymphocyte Stimulator); test: phage ELISA
# T2 construct: Coated on plastic, captured on streptavidin plates, amine-coupled to a CM5 chip or free in solution, depending on the assay; also called BLyS; immobilized B Lymphocyte Stimulator
# LIGHT = LIGHT (human, UniProt O43557 74-240, limits assumed); test: phage ELISA
# TNF-alpha = target: T3, TNF-alpha (human, UniProt P01375 77-233); test: phage ELISA
# T3 construct: also called TNFα; TNF-α
# TNF-beta = target: T1, TNF-beta; test: phage ELISA
# TRAIL = target: T4, TRAIL (human, UniProt P50591 114-281); test: phage ELISA
# T4 construct: also called TNF-related apoptosis inducing ligand
# [2] = target: T5, biotinylated B Lymphocyte Stimulator, soluble form (human, UniProt Q9Y275 134-285, biotinylated with NHS-biotin, molar ratio 20:1 biotin:protein); test: phage scFv, receptor binding inhibition on IM9 cells
# T5 construct: also called bio-B Lymphocyte Stimulator; free B Lymphocyte Stimulator
# T3 sequence (P01375 77-233 limits assumed): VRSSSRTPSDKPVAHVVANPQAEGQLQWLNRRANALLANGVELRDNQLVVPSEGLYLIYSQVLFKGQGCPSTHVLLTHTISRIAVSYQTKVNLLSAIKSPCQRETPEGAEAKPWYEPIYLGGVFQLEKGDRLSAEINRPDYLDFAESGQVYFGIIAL
# T4 sequence (P50591 114-281 limits assumed): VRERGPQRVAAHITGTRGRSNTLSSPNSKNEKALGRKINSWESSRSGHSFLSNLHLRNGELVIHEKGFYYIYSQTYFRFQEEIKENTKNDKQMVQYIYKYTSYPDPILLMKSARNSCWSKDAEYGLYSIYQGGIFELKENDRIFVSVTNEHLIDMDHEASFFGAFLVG
# LIGHT, sequence (O43557 74-240 limits assumed): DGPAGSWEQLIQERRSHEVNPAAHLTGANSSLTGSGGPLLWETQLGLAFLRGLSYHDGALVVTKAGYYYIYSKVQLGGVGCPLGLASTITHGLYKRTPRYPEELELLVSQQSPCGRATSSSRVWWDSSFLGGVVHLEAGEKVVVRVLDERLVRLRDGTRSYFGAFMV
Binder,binding result [1],binding result (LIGHT),binding result (TNF-alpha),binding result (TNF-beta),binding result (TRAIL),binding result [2]
I067F05 (scFv) scFv: QVQLQQSGAEVKKPGSSVKVSCKASGGTFSSYAISWVRQAPGQGLEWMGRIIPIVNMANYAQKFQGRVTLTADKSTGTAYMELTSLRSEDTAVYYCARENYDSLTGYYGAFDIWGKGTMVTVSSGGGGSGGGGSGGGGSQSVLTQPASVSGSPGQSITISCTGTSSDVGGYNYVSWYQQHPGKAPKLMIYEGSKRPSGVSNRFSGSKSGNTASLTISGLQAEDEADYYCSSYTTRSTRVFGGGTKLTVLG,binds,no binding,no binding,no binding,no binding,–
I026C04 (scFv) scFv: QVQLVQSGAEVKKPGSSVKVSCRASGGSFNHAISWVRQAPGRGLEWMGGILPMYGTANYAQKFQGRVTITADKLTNTVYMDLSRLRYEDTAVYYCARELGLSIVGATTGALDMWGKGTLVTVSSGGGGSGGGGSGGGGSAQSVLTQPPSVSAAPGQKVTISCSGSSSNIGNNYVSWYQQIPGTAPKLLIYENNKRPSGIPDRFSGSKSGASATLDITGLQTGDEADYYCGTWHSSQVVFGGGTKLTVLG,binds,no binding,no binding,no binding,no binding,–
"I025B09 (scFv, also called I0025B09) scFv: QVHLVQSGAEVKKPGSSVKVSCRASGGSFNHAISWVRQAPGRGLEWMGGILPMYGTANYAQKFQGRVTITADKLTNTVYMDLSRLRYEDTAVYYCARELGLSIVGATTGALDMWGKGTLVTVSSGGGGSGGGGSGGGGSAQSVLTQPPSVSAAPGQKVTISCSGSSSNIGNNYVSWYQQIPGTAPKLLIYENNKRPSGIPDRFSGSKSGASATLDITGLQTGDEADYYCGTWHSSQVVFGGGTKLTVLG",binds,no binding,no binding,no binding,no binding,–
I025B06 (scFv) scFv: QVQLVQSGAEVKKPGSSVKVSCRASGGSFNHAISWVRQAPGRGLEWMGGILPMYGTANYAQKFQGRVTITADKLTNTVYMDLSRLRYEDTAVYYCARELGLSIVGATTGALDMWGKGTLVTVSSGGGGSGGGGSGGGGSAQSVLTQPPSVSAAPGQKVTISCSGSSSNIGNNYVSWYQQIPGTAPKLLIYENNKRPSGIPDRFSGSKSGASAALDITGLQTGDEADYYCGTWHSSQVVFGGGTKLTVLG,binds,no binding,no binding,no binding,no binding,–
I031C07 (scFv) scFv: EVQLVQSGAEVKKPGSSVKVSCRASGGSFIDGSINWLRQAPGQGLEWVGGTIPLANRANYAQKFRDRVTITADELTAIVFLELTSLRSDDTALYYCARSSPPRWYDALTGDSSYHSAMDVWGQGTMVTVSSGGGGSGGGGSGGGGSAQSALTQPPSASGSPGQSVTISCSGTSSDIGDSNSVSWYQQHPGKAPKLLIYEVTKRPSGVPDRFAGSRSDNTASLTVSGLQTEDEADYYCSSSAARNHLVFGGGTKVTVLG,–,–,–,–,–,binds
I012A06 (scFv) scFv: QVQLQESGPGVVKPSQTLSLTCTVSGVSISSDSYYWSWIRQPAGKGPEWIGRIYPTGSTNYNPSLKSRVTISVDTSKNQFSLQLTSVTAADTAVYYCARGRWDYDLLTGEHLGYYFDYWGRGTLVTVSSGGGGSGGGGSGGGGSALSSELTQDPAVSVALGQTVRITCQGDTLRNYYASWYQQKPGQAPVLVIHSRNNRPSGIPDRFSGSSSGTTASLTITGSQAEDEADYYCNSRDSSGNVIFGGGTKLTVLG,–,–,–,–,–,binds
I078D02 (scFv) scFv: QVQLQQSGAEVKKPGASVKVSCKASGYTFTSYGISWVRQAPGQGLEWMGWISAYNGNTNYAQKLQGRVTMTTDTSTSTAYMELRSLRSDDTAVYYCARVYYDILTGYNLFFDYWGKGTMVTVSSGGGGSGGGGSGGGGSQSVLTQPASVSGSPGQSITISCTGTSSDVGGYNYVSWYQQHPGKAPKLMIYEGSKRPSGVSNRFSGSKSGNTASLTISGLQAEDEADYYCSSYTTRSTRVFGGGTKLTVLG,binds,no binding,no binding,no binding,no binding,–
I078H08 (scFv) scFv: QVQLVQSAAEVKKPGASVKVSCKASGYTFTSYGISWVRQAPGQGLEWMGWISAYNGNTNYAQKLQGRVTMTTDTSTSTAYMELRSLRSDDTAVYYCARVYYDILTGYNLFFDYWGRGTTVTVSSGGGGSGGGGSGGGGSQSVLTQPASVSGSPGQSITISCTGTSSDVGGYNYVSWYQQHPGKAPKLMIYEGSKRPSGVSNRFSGSKSGNTASLTISGLQAEDEADYYCSSYTTRSTRVFGGGTKLTVLG,binds,no binding,no binding,no binding,no binding,–
"I068C06 (scFv, also called I0068C06; I0068CO6) scFv: EVQLVQSGAEVKKPGSSVKVSCKASGGTVSSRTISWVRQAPGQGLEWMGGSLPPSGAPIYAQKFQGRVAITADALTNTAFMELRSLKSDDTAVYYCARDQGRYLDLWGKGTLVTVSSGGGGSGGGGSGGGGSAQAVLTQPSSVSGAPGQRVTISCTGSRSNIGAGYDVHWYQQLPGTAPKLLIYGNSNRPSGVPDRFSGSKSGTSASLAITGLQADDEADYYCQSYDTSLRGLFGTGTKVTVLG",–,no binding,no binding,no binding,no binding,–
I022D01 (scFv) scFv: EVNLRESGGGVDQPGRSLRLSCAASGFTFSSYGMHWVRQAPGKGLEWVAVISYDGSNKYYADSVKGRFTISRDNSKNTLYLQMNSLRAEDTAVYYCAKDGYYDILTGYSYYGMDVWGQGPMVAVSSGGGGSGGGGSGGGGSSELTQDPAVSVALGQTVRITCQGDSLRSYYTNWFQQKPGQAPLLVVYAKNKRPSGIPDRFSGSSSGNTASLTITGAQAEDEADYYCNSRDSSGNHVVFGGGTKLTVLG,–,–,–,–,–,binds
I071B03 (scFv) scFv: QVQLQQSGAEVKKPGASVKVSCKASGYTFTKYTMHWVRQAPGQGPEWMGWINGGSGDTKYSRKFQGRVTITKDTSASAAYMELSSLGSEDTALYYCARATYDPLTGYSFDGFDIWGQGTMVTVSSGGGGSGGGGSGGGGSQSVLTQPASVSGSPGQSITISCTGTSSDVGGYNYVSWYQQHPGKAPKLMIYEGSKRPSGVSNRFSGSKSGNTASLTISGLQAEDEADYYCSSYTTRSTRVFGGGTKLTVLD,binds,no binding,no binding,no binding,no binding,–
I026C04-K (scFv) scFv: QVQLVQSGAEVKKPGSSVKVSCRASGGSFNKHAISWVRQAPGRGLEWMGGILPMYGTANYAQKFQGRVTITADKLTNTVYMDLSRLRYEDTAVYYCARELGLSIVGATTGALDMWGKGTLVTVSSGGGGSGGGGSGGGGSAQSVLTQPPSVSAAPGQKVTISCSGSSSNIGNNYVSWYQQIPGTAPKLLIYENNKRPSGIPDRFSGSKSGASATLDITGLQTGDEADYYCGTWHSSQVVFGGGTKLTVLG,–,no binding,no binding,no binding,no binding,–
